The values below come from US20240199731A1 (published 2024).

The assay has as its target T1, Recombinant human IL-17A (Peprotech, cat #AF-200-17) (human, UniProt Q16552 24-155).
T1 construct: Bought protein
Nature of the assay: SPR (BIAcore T200), IL-17A coupled to CM5 chip, VH as analyte, single-cycle kinetics.

T1 sequence (Q16552 24-155): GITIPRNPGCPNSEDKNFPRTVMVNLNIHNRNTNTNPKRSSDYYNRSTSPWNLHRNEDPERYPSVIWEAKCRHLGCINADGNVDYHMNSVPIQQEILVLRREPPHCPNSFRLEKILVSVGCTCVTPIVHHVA
Protocol: VH binding kinetics were then determined from the (blank subtracted) sensorgram traces using 1:1 binding models and BIAevaluation software.

B1: Clone 1.17 (VHH)
VHH: EVQLVESGGGLVQPGGSLRLSCAASGFTFSSYSMYWVRQAPGKGLEWVAEIKPTGSVQYYVSDVKGRFTISRDNAKNSLYLQMNSLRAEDTAVYYCAKGEILPLYFDYWGQGTLVTVSS
notes: Human single VH domain; also called VH 1.17.1
By Kd is commonly meant the concentration at which binding is half-saturated. With B1, the Kd came to 1.5 nM.
